Measured values as given in the DeepSol protein solubility set.

Assay: soluble on expression in E. coli; label from the status in PepcDB or PDB records

Sequence | soluble on expression in E. coli
MGNQSARQLSTHRKHVVHTWNTINSHDPQLLSDAISEAWLKSAELTPTWVWALVDLPETMHATYKENAQFLNIINQVRDFLNILIKVHKCDPEMIKTLSFRLGARHRHYMNEGNDNCFWAPFAQQLPIAMSKMYMRVVTEDSKIRRILRIRSRAAEKSEEEEVCESWRQFSCMLIESMKRGYEGCASEKTPLRLSITNSIISMASMRSSRSRSASHFLEPNMSPAIAPMCALLGSTESNSTTTTTQPSSPITPYRRRSMFRAGGALQRNSQDFTALRNRRMSSPNNPSILLNNCDIQLLKLTSQLSPLEDQVKQNRVPGRAHQQRRSITLLNFDHHHRARSPTT | not soluble
MTIVAENLTKHLSNLSKRGPHRVLVGDLDYVGLPGKIYTPAEGNGLPAVVFAHDWMQDISRYHATLRHLASWGIVVAAPNTEKGISPNHRGFAADIETSLQVLTGVKLGAGNISVAPGRLGIVGHGMGAGAAVLAAADRPQIAAVAAIYPSQVSPSADVAARNVEAAGLVLGTEENAMFDFGNAAKLALEWKGPVAYREIDRASHQTLTENTLFKRVTGLGGTNTAARERIRGVVTGFLLHQLADQKKYSGFSEADATGKKVHSYWGEELQERASLTGDSKLTLFKS | not soluble
SASVLKETAGLYETLKAEWNKKNPNLNKCGELLSKLKISLLELNFLPTTGTKLTKQQLILARDVLEIGALWSILKKDIPSFERYMAQLKCYYFDYKDELPESAYRHQLLGLNLLFLLSQNRVSEFHTELERLSAKDIQTNVYIRHPVSLEQYLMEGSYNKVFLAKGNIPAESYTFFIDTLLDTIRDEIAGCIEKAYEQIQFNEATRVLFFSSPKKMTDYAKKRNWTQSPDGYYSFSTQHQKTEEVTIPSTELAKQVIEYARQLEMIV | soluble
MGSDKIHHHHHHMVIAVRRILIREEYCMGCKLCEINCVAAQVGTGNLIKVYRYVPELPEPNVIVEEHDYVTFALQCRNCDDPSCLKACMTGAMHRDPKTGAIRVNQEKCVGCWMCVMACPFGVIRRNTKEKKVASKCDLCADRGTPGCVEGCPNEALVLVEVRE | not soluble
MGSDKIHHHHHHFKSKGKKSKRKKRNYFDSEDDDDESESETKYGGKFGKKKLEGLQKRLRETESAMSKILEQLESVQAGANPVDLDAADKRSEQLEEDPSVKEAVGLTETNEQYIKDLEVALKEFQSLSKEYDKAKMKKLKRKDSSSDEDEEDEEENSSELSEIEEEEEEVKPVKKSKSSSQSVGKRKNRPKSTSEEEDEGEEESRKVAEDAEEEGIDIDSEIREHAEKEKKDKNVRRRRPKKT | not soluble
MAHHHHHHMFHGFPQVQVVSDDAPTGESIFAKDSDSHVELPPAKKVRISFPALTHLGSFSQDATCHSAVGGRLCGVQQGDTILITSVLPSLGASGDAEDERDDTAESKQQQKMYEKVKEMLRKECLDSYSVGYFIVSSACVNDPYSVVTADRLANLAIDGHPSVLLVYDPFRTGLMGKLYLRAFVPTDAFLDFSRKNKKTKKTDKKSGMQEEARLLRACSVPKQGVLREVKVEVEVDAYQLFCLNGIDIAPLPSNSTVHHSDSMADYKVALLESVQRNLSDLEGKLSRETSRNQRDENNVPPARGVDTMLALVQLREQAQHLEALCDGTLLISSLLRDL | not soluble
MLTHQFNPYSACTSILVGKNASADGSTMIGRNEDSRAAWAKKMIIHAHREFEEPQTFKSQDQTHPFTMTLPKIRAKYTATPEWTAEYGLFEEDGINEYGVAMSATESAYCNTRVLAADPYVKDGIGEEAMVTVTLPYIHSAREGVERLGHIIEEHGTYETNGILFSDVNEVWYMETGAGHYWVAQRIPDDAYAVVANQLAIQEIDFSDHDNYLYAKDIRNFVLDNQLASMDNGLNFREVFGTADLSDRYYNTPRVWYGQRCFTPSVTQTPESFDLPFIQRADGLIHIDQVQGYLASHYQGTPFDPVGQGTATEKHQYRPISLAKTQESHVLQLRPDLPVTLSGIHWLAMGVAAESVYVPFYAGATTTPAAYQVATEKYDATSAYWIFKHVGILVDAHYHELHGELQTVQKELAIQLGHHIIVTDQQVAALTGDELAMALTKANQKAVDQALNTMQALAADLITKSTDMSPLNYDTDLNLLEHHHHHH | not soluble
